Reference: PMC3092982, “Zinc Binding to the Tyr402 and His402 Allotypes of Complement Factor H: Possible Implications for Age-Related Macular Degeneration” (Journal of Molecular Biology, 2011)

Target: the molecule itself
Test: AUC; sedimentation velocity, SCR-6/8 at 0.3 mg/ml (14.6 μM), Hepes buffer, 20 °C, 50,000 rpm, c(s) analysis; monomer and dimer peaks seen throughout the ZnSO4 titration 0.2-600 μM

Protein | stoichiometry N
recombinant FH fragment SCR-6/8 Tyr402 (domain or fragment, human, complement factor H, human, SCR domains 6 to 8, Tyr402 allotype; It says that SCR-6/8, unlike SCR-1/5 and SCR-16/20, has no His6-tag; also called SCR-6/8 Tyr402 allotype; source: E. coli BL21 (DE3), pET21ab) LKPCDYPDIKHGGLYHENMRRPYFPVAVGKYYSYYCDEHFETPSGSYWDHIHCTQDGWSPAVPCLRKCYFPYLENGYNQNYGRKFVQGKSIDVACHPGYALPKAQTTVTCMENGWSPTPRCIRVKTCSKSSIDIENGFISESQYTYALKEKAKYQCKLGYVTADGETSGSITCGKDGWSAQPTCI | 2
recombinant FH fragment SCR-6/8 His402 (domain or fragment, human, complement factor H, human, SCR domains 6 to 8, His402 allotype; It says that SCR-6/8, unlike SCR-1/5 and SCR-16/20, has no His6-tag; PDB 2UWN is a cited crystal structure of SCR-6/8 His402 whose limits may differ from this construct; also called SCR-6/8 His402 allotype; source: E. coli BL21 (DE3)pLysS, pET14b) LKPCDYPDIKHGGLYHENMRRPYFPVAVGKYYSYYCDEHFETPSGSYWDHIHCTQDGWSPAVPCLRKCYFPYLENGYNQNHGRKFVQGKSIDVACHPGYALPKAQTTVTCMENGWSPTPRCIRVKTCSKSSIDIENGFISESQYTYALKEKAKYQCKLGYVTADGETSGSITCGKDGWSAQPTCI | 2
